Consider two substances from IntAct's records for PubMed 26886794.

Assay [1] deals with ASH2L, Q9UBL3-3.
The target in assay [2] is ASH2L, Q9UBL3-3. This is another data set of the same source.

Sequence of ASH2L, Q9UBL3-3 (Q9UBL3 95-628): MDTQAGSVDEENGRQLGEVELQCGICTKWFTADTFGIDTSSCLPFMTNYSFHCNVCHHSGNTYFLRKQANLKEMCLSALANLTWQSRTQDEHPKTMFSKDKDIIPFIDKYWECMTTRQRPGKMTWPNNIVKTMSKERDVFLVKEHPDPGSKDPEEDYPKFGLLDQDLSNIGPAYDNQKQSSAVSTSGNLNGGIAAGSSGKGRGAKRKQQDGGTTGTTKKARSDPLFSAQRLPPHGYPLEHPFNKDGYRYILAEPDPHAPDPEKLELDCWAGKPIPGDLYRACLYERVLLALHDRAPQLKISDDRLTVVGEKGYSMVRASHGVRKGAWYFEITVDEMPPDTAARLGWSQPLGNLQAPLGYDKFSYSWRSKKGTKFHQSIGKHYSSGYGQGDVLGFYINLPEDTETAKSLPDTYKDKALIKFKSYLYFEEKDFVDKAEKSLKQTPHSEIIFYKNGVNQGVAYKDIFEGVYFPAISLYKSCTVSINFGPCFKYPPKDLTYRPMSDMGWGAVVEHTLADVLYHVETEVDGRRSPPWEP

In the case of “Histone-lysine N-methyltransferase 2C (Homo sapiens), Q8NEZ4 R4806A”, the “effect of a mutation on the interaction” value in assay [1] is “disrupting interaction strength”.

Turning to “Histone-lysine N-methyltransferase 2B (Homo sapiens), Q9UMN6 R2610A”, in assay [2], the “effect of a mutation on the interaction” value was “disrupting interaction strength”.
